Values joined by “and” are separate entries in the source; they are usually repeats but may differ in a detail not shown here. Equal values may be shown once. Read-outs that look alike come from different tables or passages of the source.
Columns and labels:
[1] = target: RSV IN (1-278 aa) (Rous sarcoma virus (Prague A))
[2] = target: RSV IN (1-278 aa) (Rous sarcoma virus (Prague A)); experiment: SEC
[3] = target: RSV IN (1-269) (Rous sarcoma virus (Prague A)); experiment: SEC

Substance | stoichiometry N [1] | stoichiometry N [2] | stoichiometry N [3]
RSV IN (1-278 aa) (domain or fragment) | 2 | 4 and 8 | –
RSV IN (1-269) (domain or fragment) | – | – | 4

Source: publication doi:10.1101/2025.09.09.675266
